Data: article PMC4558366

Key:
Experiment in all cases: ITC
[1] = molecular target: T1, UHRF1_(SRA-RING) (residues 419-806) (human), Q96T88
T1 chain: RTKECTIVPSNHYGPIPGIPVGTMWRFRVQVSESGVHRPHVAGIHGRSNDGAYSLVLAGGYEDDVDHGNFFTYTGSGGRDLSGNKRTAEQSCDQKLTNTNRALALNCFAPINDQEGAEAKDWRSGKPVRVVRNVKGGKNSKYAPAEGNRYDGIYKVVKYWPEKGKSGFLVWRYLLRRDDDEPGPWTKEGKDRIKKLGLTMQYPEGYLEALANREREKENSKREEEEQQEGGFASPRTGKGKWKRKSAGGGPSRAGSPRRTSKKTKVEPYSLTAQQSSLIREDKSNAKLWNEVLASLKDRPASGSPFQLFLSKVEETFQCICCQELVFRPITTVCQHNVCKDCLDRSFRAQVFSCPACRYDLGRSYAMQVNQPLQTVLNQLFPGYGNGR

[2] = molecular target: T2, UHRF1_(647-687) K659E (human), Q96T88
T2 chain: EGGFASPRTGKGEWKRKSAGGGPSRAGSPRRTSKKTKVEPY

[3] = molecular target: T3, UHRF1_(TTD-RING) (residues 138-806) (human), Q96T88
T3 chain: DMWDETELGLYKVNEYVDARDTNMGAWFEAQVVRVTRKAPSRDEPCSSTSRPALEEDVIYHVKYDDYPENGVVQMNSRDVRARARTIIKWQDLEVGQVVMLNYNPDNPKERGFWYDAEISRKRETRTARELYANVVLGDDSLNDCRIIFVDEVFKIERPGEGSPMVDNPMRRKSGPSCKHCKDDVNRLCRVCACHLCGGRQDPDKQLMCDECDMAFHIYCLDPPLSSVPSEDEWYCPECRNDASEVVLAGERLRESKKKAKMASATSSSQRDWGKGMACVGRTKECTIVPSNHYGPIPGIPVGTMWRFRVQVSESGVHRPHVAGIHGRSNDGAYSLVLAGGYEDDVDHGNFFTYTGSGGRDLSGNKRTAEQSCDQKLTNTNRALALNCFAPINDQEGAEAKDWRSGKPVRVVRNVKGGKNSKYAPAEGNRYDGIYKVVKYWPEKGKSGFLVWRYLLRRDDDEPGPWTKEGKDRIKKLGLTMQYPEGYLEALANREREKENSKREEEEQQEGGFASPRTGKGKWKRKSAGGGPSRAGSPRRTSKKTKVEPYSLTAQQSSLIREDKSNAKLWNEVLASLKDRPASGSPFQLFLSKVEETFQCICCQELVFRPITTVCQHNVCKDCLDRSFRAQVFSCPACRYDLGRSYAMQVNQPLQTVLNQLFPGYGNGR

[4] = molecular target: T4, UHRF1_(647-678) (human), Q96T88
T4 chain: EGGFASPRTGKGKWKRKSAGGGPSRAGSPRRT

[5] = molecular target: T5, UHRF1_(600-687) (human), Q96T88
T5 chain: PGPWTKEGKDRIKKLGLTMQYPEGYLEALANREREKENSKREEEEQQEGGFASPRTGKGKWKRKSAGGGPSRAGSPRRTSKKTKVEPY

B1: USP7 UBL1-2 (first two UBL domains of USP7) (domain or fragment)
chain: EAHLYMQVQIVAEDQFCGHQGNDMYDEEKVKYTVFKVLKNSSLAEFVQSLSQTMGFPQDQIRLWPMQARSNGTKRPAMLDNEADGNKTMIELSDNENPWTIFLETVDPELAASGATLPKFDKDHDVMLFLKMYDPKTRSLNYCGHIYTPISCKIRDLLPVMCDRAGFIQDTSLILYEEVKPNLTERIQDYDVSLDKALDELMDGDIIVFQKDDPENDNSELPTAKEYFRDLYH
modifications: not checked
[1]
  Kd: 1.3 µM
[2]
  fold reduction of binding affinity against wild type: 38 fold
[3]
  Kd: 27.2 µM
[4]
  Kd: 1.52 µM
[5]
  Kd: 1.42 µM
